{"source": "IntAct's records for PubMed 23972470", "parents": {"B1": {"name": "Serine/threonine-protein kinase 3 (Homo sapiens), Q13188 (parent)", "chain": "MEQPPAPKSKLKKLSEDSLTKQPEEVFDVLEKLGEGSYGSVFKAIHKESGQVVAIKQVPVESDLQEIIKEISIMQQCDSPYVVKYYGSYFKNTDLWIVMEYCGAGSVSDIIRLRNKTLIEDEIATILKSTLKGLEYLHFMRKIHRDIKAGNILLNTEGHAKLADFGVAGQLTDTMAKRNTVIGTPFWMAPEVIQEIGYNCVADIWSLGITSIEMAEGKPPYADIHPMRAIFMIPTNPPPTFRKPELWSDDFTDFVKKCLVKNPEQRATATQLLQHPFIKNAKPVSILRDLITEAMEIKAKRHEEQQRELEEEEENSDEDELDSHTMVKTSVESVGTMRATSTMSEGAQTMIEHNSTMLESDLGTMVINSEDEEEEDGTMKRNATSPQVQRPSFMDYFDKQDFKNKSHENCNQNMHEPFPMSKNVFPDNWKVPQDGDFDFLKNLSLEELQMRLKALDPMMEREIEELRQRYTAKRQPILDAMDAKKRRQQNF", "partner": "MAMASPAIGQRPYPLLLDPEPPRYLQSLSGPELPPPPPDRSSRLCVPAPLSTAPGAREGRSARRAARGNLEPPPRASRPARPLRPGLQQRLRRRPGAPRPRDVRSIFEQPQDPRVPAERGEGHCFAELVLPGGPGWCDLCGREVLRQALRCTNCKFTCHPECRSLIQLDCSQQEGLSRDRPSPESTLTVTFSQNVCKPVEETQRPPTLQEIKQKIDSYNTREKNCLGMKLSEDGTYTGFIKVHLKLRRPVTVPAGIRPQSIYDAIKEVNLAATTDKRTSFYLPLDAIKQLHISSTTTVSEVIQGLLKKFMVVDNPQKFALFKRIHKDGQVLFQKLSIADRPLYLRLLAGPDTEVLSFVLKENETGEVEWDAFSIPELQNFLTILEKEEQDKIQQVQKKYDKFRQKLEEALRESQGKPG"}}}
{"variants_of": "B1", "conditions": "with RASSF5, Q8WWW0-1"}
{"variant": "K473A", "effect of a mutation on the interaction": "decreasing interaction strength"}
